In paper PMC9482650, “Quantitative fragmentomics allow affinity mapping of interactomes” (Nature Communications, 2022):

T1: DLG3_3, Q92796
T1 sequence (Q92796 374-475, limits assumed, looked up): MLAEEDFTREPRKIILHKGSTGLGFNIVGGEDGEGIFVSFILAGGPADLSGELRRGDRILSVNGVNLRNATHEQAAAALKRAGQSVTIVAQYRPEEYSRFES

T2: RAPGEF6, Q8TEU7
T2 sequence (Q8TEU7 525-625, limits assumed, looked up): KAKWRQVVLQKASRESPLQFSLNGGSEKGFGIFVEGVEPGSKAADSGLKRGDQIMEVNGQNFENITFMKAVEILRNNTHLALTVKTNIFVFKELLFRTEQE

T3: LRRC7, Q96NW7
T3 sequence (Q96NW7 1440-1537, limits assumed, looked up): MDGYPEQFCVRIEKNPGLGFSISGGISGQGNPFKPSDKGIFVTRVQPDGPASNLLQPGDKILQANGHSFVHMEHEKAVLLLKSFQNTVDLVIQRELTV

T4: NHERF3_4, Q5T2W1
T4 sequence (Q5T2W1 373-468, limits assumed, looked up): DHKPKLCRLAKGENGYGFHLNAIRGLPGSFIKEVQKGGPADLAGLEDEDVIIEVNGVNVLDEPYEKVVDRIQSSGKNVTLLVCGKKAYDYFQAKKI

T5: DFNB31_2, Q9P202
T5 sequence (Q9P202 274-371, limits assumed, looked up): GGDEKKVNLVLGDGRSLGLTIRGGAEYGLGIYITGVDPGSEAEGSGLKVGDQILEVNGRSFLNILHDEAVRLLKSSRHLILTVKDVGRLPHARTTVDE

T6: MPP2, Q14168
T6 sequence (Q14168 180-250, limits assumed, looked up): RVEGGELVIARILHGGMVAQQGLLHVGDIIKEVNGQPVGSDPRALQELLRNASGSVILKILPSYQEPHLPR

T7: MPDZ_12, O75970
T7 sequence (O75970 1857-1958, limits assumed, looked up): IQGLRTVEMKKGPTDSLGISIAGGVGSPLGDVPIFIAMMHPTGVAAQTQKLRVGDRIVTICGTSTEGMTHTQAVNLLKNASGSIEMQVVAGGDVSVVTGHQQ

T8: PARD3B_1, Q8TEW8
T8 sequence (Q8TEW8 196-299, limits assumed, looked up): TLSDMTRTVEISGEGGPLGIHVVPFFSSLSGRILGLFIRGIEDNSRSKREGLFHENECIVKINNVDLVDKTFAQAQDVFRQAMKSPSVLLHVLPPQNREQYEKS

T9: GRIP1_5, Q9Y3R0
T9 sequence (Q9Y3R0 568-668, limits assumed, looked up): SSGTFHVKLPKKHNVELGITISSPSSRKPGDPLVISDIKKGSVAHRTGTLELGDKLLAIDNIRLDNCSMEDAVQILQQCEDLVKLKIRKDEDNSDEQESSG

T10: LIN7B, Q9HAP6
T10 sequence (Q9HAP6 88-185, limits assumed, looked up): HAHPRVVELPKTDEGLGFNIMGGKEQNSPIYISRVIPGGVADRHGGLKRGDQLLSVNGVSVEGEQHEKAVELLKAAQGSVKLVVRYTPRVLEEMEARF

T11: DFNB31_3, Q9P202
T11 sequence (Q9P202 811-907, limits assumed, looked up): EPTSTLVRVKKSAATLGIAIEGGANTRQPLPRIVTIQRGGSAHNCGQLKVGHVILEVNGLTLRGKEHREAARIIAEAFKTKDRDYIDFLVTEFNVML

T12: GRIP1_4, Q9Y3R0
T12 sequence (Q9Y3R0 467-571, limits assumed, looked up): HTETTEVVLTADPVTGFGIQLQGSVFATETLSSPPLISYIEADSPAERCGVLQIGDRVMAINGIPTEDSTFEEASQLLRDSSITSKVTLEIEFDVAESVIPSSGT

T13: PDZD2_2, O15018
T13 sequence (O15018 329-429, limits assumed, looked up): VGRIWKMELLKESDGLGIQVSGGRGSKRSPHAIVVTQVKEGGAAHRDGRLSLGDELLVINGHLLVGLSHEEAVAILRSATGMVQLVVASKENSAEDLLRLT

B1: TTC24, A2A3L6 (peptide)
chain: PMESGICTIV
B2: PTH2R, P49190 (peptide)
chain: GCQGETEDVL
B3: GJA1, P17302 (peptide)
chain: SRPRPDDLEI
B4: GRIA3, P42263 (peptide)
chain: NVYGTESVKI
B5: SSTR5, P35346 (peptide)
chain: ANGLMQTSKL
B6: DENND5A, Q6IQ26 (peptide)
chain: ETSLVKGIDI

How the values were obtained:
Assay in all cases: holdup assay
Set-up in all cases: key: below the threshold = too weak to quantify, mostly under pKd 3.1 to 4
Conditions in all cases: plain residues with an end cap or a label only (N-terminal biotin on a linker: ado-ado)
[1] = target: NHERF2_2, Q15599
[2] = target: LNX1_3, Q8TBB1
[3] = target: T1, DLG3_3, Q92796
[4] = target: TJP2_1, Q9UDY2
[5] = target: PDZRN4_1, Q6ZMN7
[6] = target: DLG1_1, Q12959
[7] = target: T2, RAPGEF6, Q8TEU7
[8] = target: SCRIB_3, Q14160
[9] = target: T3, LRRC7, Q96NW7
[10] = target: T4, NHERF3_4, Q5T2W1
[11] = target: SCRIB_1, Q14160
[12] = target: T5, DFNB31_2, Q9P202
[13] = target: T6, MPP2, Q14168
[14] = target: T7, MPDZ_12, O75970
[15] = target: GRIP2_5, Q9C0E4
[16] = target: SNX27, Q96L92
[17] = target: T8, PARD3B_1, Q8TEW8
[18] = target: T9, GRIP1_5, Q9Y3R0
[19] = target: T10, LIN7B, Q9HAP6
[20] = target: T11, DFNB31_3, Q9P202
[21] = target: T12, GRIP1_4, Q9Y3R0
[22] = target: MAST2, Q6P0Q8
[23] = target: T13, PDZD2_2, O15018
[24] = target: Inadl_2, Q8NI35
Inadl_2, Q8NI35, sequence (Q8NI35 238-335): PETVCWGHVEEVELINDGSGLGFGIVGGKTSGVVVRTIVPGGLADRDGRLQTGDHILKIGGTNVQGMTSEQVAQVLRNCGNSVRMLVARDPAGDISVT

NHERF2_2, Q15599, sequence (Q15599 142-238): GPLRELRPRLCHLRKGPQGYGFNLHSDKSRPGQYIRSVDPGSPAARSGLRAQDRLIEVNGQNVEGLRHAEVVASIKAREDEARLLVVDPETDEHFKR
SCRIB_1, Q14160, sequence (Q14160 718-814): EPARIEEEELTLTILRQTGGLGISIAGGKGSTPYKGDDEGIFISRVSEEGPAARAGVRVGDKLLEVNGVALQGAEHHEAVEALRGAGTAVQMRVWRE
LNX1_3, Q8TBB1, sequence (Q8TBB1 500-596): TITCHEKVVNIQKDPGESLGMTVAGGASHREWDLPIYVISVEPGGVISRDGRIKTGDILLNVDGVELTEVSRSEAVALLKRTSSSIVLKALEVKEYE
PDZRN4_1, Q6ZMN7, sequence (Q6ZMN7 213-318): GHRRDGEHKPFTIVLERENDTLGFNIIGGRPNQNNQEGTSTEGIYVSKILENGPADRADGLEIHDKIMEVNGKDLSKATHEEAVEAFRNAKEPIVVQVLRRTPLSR
MAST2, Q6P0Q8, sequence (Q6P0Q8 1099-1202): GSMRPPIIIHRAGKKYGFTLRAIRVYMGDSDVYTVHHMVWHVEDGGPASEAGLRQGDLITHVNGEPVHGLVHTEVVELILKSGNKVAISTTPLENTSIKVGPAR
SCRIB_3, Q14160, sequence (Q14160 999-1103): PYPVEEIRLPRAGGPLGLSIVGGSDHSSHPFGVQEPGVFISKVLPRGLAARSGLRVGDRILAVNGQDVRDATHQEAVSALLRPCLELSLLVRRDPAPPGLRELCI
GRIP2_5, Q9C0E4, sequence (Q9C0E4 544-642): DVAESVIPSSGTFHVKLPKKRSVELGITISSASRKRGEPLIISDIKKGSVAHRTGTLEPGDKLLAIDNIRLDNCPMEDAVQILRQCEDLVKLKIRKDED
TJP2_1, Q9UDY2, sequence (Q9UDY2 24-128): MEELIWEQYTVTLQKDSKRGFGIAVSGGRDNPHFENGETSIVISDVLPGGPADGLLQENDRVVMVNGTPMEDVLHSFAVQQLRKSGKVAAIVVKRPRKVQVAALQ

Binder | pKd [1] | pKd [2] | pKd [3] | pKd [4] | pKd [5] | pKd [6] | pKd [7] | pKd [8] | pKd [9] | pKd [10] | pKd [11] | pKd [12] | pKd [13] | pKd [14] | pKd [15] | pKd [16] | pKd [17] | pKd [18] | pKd [19] | pKd [20] | also measured
B1 | 3.83 | 3.53 | below the threshold | 3.81 | below the threshold | 4.79 | below the threshold | 4.06 | below the threshold | below the threshold | 3.92 | below the threshold | below the threshold | below the threshold | below the threshold | 4.63 | 4.26 | below the threshold | below the threshold | 3.89 | pKd [21]: below the threshold; pKd [22]: 5.23; pKd [23]: 4.68; pKd [24]: 3.76
B2 | 4.03 | below the threshold | below the threshold | below the threshold | below the threshold | below the threshold | below the threshold | 3.92 | below the threshold | below the threshold | below the threshold | below the threshold | below the threshold | below the threshold | below the threshold | 4.52 | 4.05 | below the threshold | below the threshold | below the threshold | pKd [21]: below the threshold; pKd [22]: 4.46; pKd [23]: below the threshold; pKd [24]: below the threshold
B3 | below the threshold | below the threshold | below the threshold | below the threshold | below the threshold | below the threshold | below the threshold | below the threshold | below the threshold | below the threshold | below the threshold | below the threshold | below the threshold | below the threshold | below the threshold | below the threshold | below the threshold | below the threshold | below the threshold | below the threshold | pKd [21]: below the threshold; pKd [22]: 3.75; pKd [23]: below the threshold; pKd [24]: below the threshold
B4 | 3.47 | below the threshold | below the threshold | below the threshold | below the threshold | below the threshold | below the threshold | below the threshold | below the threshold | below the threshold | below the threshold | below the threshold | below the threshold | below the threshold | below the threshold | below the threshold | 4.8 | below the threshold | below the threshold | below the threshold | pKd [21]: below the threshold; pKd [22]: 3.81; pKd [23]: below the threshold; pKd [24]: below the threshold
B5 | 4.64 | below the threshold | below the threshold | below the threshold | below the threshold | below the threshold | below the threshold | 3.5 | below the threshold | 4.76 | 4.06 | below the threshold | below the threshold | below the threshold | below the threshold | 5.52 | 4.16 | below the threshold | 3.47 | 4.22 | pKd [21]: below the threshold; pKd [22]: 5.34; pKd [23]: below the threshold; pKd [24]: below the threshold
B6 | 3.48 | below the threshold | below the threshold | below the threshold | below the threshold | 3.67 | below the threshold | 3.51 | below the threshold | below the threshold | below the threshold | below the threshold | below the threshold | 3.6 | below the threshold | below the threshold | 4.23 | below the threshold | below the threshold | below the threshold | pKd [21]: below the threshold; pKd [22]: below the threshold; pKd [23]: 4; pKd [24]: below the threshold
